Data: US20220017622A1 (Pfizer, published 2022)

T1: human B7-H4 on cells (human, UniProt Q7Z7D3 25-282)
T1 sequence (looked up): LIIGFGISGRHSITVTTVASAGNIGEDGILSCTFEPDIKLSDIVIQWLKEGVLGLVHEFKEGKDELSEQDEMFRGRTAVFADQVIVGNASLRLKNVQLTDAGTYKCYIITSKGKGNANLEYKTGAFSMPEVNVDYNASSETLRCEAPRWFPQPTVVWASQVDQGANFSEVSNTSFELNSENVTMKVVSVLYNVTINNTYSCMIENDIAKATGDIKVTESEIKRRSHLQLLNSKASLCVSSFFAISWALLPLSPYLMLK


Legend:
[1] = biological target: T1, human B7-H4 on cells; assay: cell-based or functional assay
[2] = biological target: T2, human CD3 (delta/epsilon heterodimer) (human, UniProt P07766 23-126; P04234 22-105); assay: SPR 37 C; CD3 delta/epsilon on anti-His chip, bispecific analyte; CD3 variant 2B5v598
T2 construct: captured on an anti-His chip, so it carries a His tag; also called huCD3

[3] = biological target: T2, human CD3 (delta/epsilon heterodimer); assay: SPR 37 C; CD3 delta/epsilon on anti-His chip, bispecific analyte; CD3 variant 2B5c707

T2 sequence (P07766 23-126, stated change not applied, chain 1 of 2): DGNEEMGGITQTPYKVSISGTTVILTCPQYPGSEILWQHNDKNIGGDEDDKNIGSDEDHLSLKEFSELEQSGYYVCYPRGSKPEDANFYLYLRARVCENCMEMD
T2 sequence (P04234 22-105, stated change not applied, chain 2 of 2): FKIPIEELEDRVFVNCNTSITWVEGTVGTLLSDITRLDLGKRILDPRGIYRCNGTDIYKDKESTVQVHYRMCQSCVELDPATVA

Row | Kd [2] [nM] | koff [2] [s⁻¹] | kon [2] [M⁻¹ s⁻¹] | Kd [3] [nM] | koff [3] [s⁻¹] | kon [3] [M⁻¹ s⁻¹] | Binder | T cell mediated tumor cell killing EC50, HCC1954-Luc [1] [nM] | T cell mediated tumor cell killing, MDA-MB-468 [1]
1 | 124 | 0.0254 | 205000 |  |  |  | B7-H4xCD3 bispecific antibody 0087 (bispecific antibody, IgG2, Chains 1-2: B7-H4 arm; chains 3-4: CD3 arm; IgG2; also called CD3 variant 2B5v598) heavy 1: QVQLQQWGAGLLKPSETLSLTCAVYGGSFSGYYWNWIRQPPGKGLEWIGEINHSGSTKYNPSLKSRVTISGDTSKNQFSLKLNSVTAADTAVYYCVRGLYNWNVDSWGQGTLVTVSSASTKGPSVFPLAPCSRSTSESTAALGCLVKDYFPEPVTVSWNSGALTSGVHTFPAVLQSSGLYSLSSVVTVPSSNFGTQTYTCNVDHKPSNTKVDKTVERKCEVECPECPAPPVAGPSVFLFPPKPKDTLMISRTPEVTCVVVAVSHEDPEVQFNWYVDGVEVHNAKTKPREEQFNSTFRVVSVLTVVHQDWLNGKEYKCKVSNKGLPSSIEKTISKTKGQPREPQVYTLPPSREEMTKNQVSLTCEVKGFYPSDIAVEWESNGQPENNYKTTPPMLDSDGSFFLYSKLTVDKSRWQQGNVFSCSVMHEALHNHYTQKSLSLSPG light 1: DIQMTQSPSSLSASVGDRVTITCRASQGIRNDLGWYQQKPGKAPKRLIYVASSLQSGVPSRFSGSGSGTEFTLTISSLQPEDFATYYCLQHNSYPYTFGQGTKLEIKRTVAAPSVFIFPPSDEQLKSGTASVVCLLNNFYPREAKVQWKVDNALQSGNSQESVTEQDSKDSTYSLSSTLTLSKADYEKHKVYACEVTHQGLSSPVTKSFNRGEC heavy 2: EVQLVESGGGLVQPGGSLRLSCAASGFTFSDYYMTWVRQAPGKGLEWVAFIRNQDRGYTSDHQPSVKGRFTISRDNAKNSLYLQMNSLRAEDTAVYYCARDRPSYYVLDYWGQGTTVTVSSASTKGPSVFPLAPCSRSTSESTAALGCLVKDYFPEPVTVSWNSGALTSGVHTFPAVLQSSGLYSLSSVVTVPSSNFGTQTYTCNVDHKPSNTKVDKTVERKCRVRCPRCPAPPVAGPSVFLFPPKPKDTLMISRTPEVTCVVVAVSHEDPEVQFNWYVDGVEVHNAKTKPREEQFNSTFRVVSVLTVVHQDWLNGKEYKCKVSNKGLPSSIEKTISKTKGQPREPQVYTLPPSREEMTKNQVSLTCLVKGFYPSDIAVEWESNGQPENNYKTTPPMLDSDGSFFLYSRLTVDKSRWQQGNVFSCSVMHEALHNHYTQKSLSLSPG light 2: DIQMTQSPSSLSASVGDRVTITCTSDQSLFNVRSGKNYLAWYQQKPGKAPKLLIYWASDRESGVPSRFSGSGSGTDFTLTISSLQPEDFATYYCKQSYDLFTFGGGTKVEIKRTVAAPSVFIFPPSDEQLKSGTASVVCLLNNFYPREAKVQWKVDNALQSGNSQESVTEQDSKDSTYSLSSTLTLSKADYEKHKVYACEVTHQGLSSPVTKSFNRGEC | 57 | 109
2 |  |  |  | 134 | 0.0689 | 511000 | B7-H4xCD3 bispecific antibody 0088 (bispecific antibody, IgG2, Chains 1-2: B7-H4 arm; chains 3-4: CD3 arm; IgG2; also called CD3 variant 2B5c707) heavy 1: QVQLQQWGAGLLKPSETLSLTCAVYGGSFSGYYWNWIRQPPGKGLEWIGEINHSGSTKYNPSLKSRVTISGDTSKNQFSLKLNSVTAADTAVYYCVRGLYNWNVDSWGQGTLVTVSSASTKGPSVFPLAPCSRSTSESTAALGCLVKDYFPEPVTVSWNSGALTSGVHTFPAVLQSSGLYSLSSVVTVPSSNFGTQTYTCNVDHKPSNTKVDKTVERKCEVECPECPAPPVAGPSVFLFPPKPKDTLMISRTPEVTCVVVAVSHEDPEVQFNWYVDGVEVHNAKTKPREEQFNSTFRVVSVLTVVHQDWLNGKEYKCKVSNKGLPSSIEKTISKTKGQPREPQVYTLPPSREEMTKNQVSLTCEVKGFYPSDIAVEWESNGQPENNYKTTPPMLDSDGSFFLYSKLTVDKSRWQQGNVFSCSVMHEALHNHYTQKSLSLSPG light 1: DIQMTQSPSSLSASVGDRVTITCRASQGIRNDLGWYQQKPGKAPKRLIYVASSLQSGVPSRFSGSGSGTEFTLTISSLQPEDFATYYCLQHNSYPYTFGQGTKLEIKRTVAAPSVFIFPPSDEQLKSGTASVVCLLNNFYPREAKVQWKVDNALQSGNSQESVTEQDSKDSTYSLSSTLTLSKADYEKHKVYACEVTHQGLSSPVTKSFNRGEC heavy 2: EVQLVESGGGLVQPGGSLRLSCAASGFTFSDYYMTWVRQAPGKGLEWVAFIRNQARGYTSDHNPSVKGRFTISRDNAKNSLYLQMNSLRAEDTAVYYCARDRHSYYVLDYWGQGTTVTVSSASTKGPSVFPLAPCSRSTSESTAALGCLVKDYFPEPVTVSWNSGALTSGVHTFPAVLQSSGLYSLSSVVTVPSSNFGTQTYTCNVDHKPSNTKVDKTVERKCRVRCPRCPAPPVAGPSVFLFPPKPKDTLMISRTPEVTCVVVAVSHEDPEVQFNWYVDGVEVHNAKTKPREEQFNSTFRVVSVLTVVHQDWLNGKEYKCKVSNKGLPSSIEKTISKTKGQPREPQVYTLPPSREEMTKNQVSLTCLVKGFYPSDIAVEWESNGQPENNYKTTPPMLDSDGSFFLYSRLTVDKSRWQQGNVFSCSVMHEALHNHYTQKSLSLSPG light 2: DIQMTQSPSSLSASVGDRVTITCTSSQSLFNVRSQKNYLAWYQQKPGKAPKLLIYWASTRESGVPSRFSGSGSGTDFTLTISSLQPEDFATYYCKQSYYLFTFGGGTKVEIKRTVAAPSVFIFPPSDEQLKSGTASVVCLLNNFYPREAKVQWKVDNALQSGNSQESVTEQDSKDSTYSLSSTLTLSKADYEKHKVYACEVTHQGLSSPVTKSFNRGEC | 140 | 655
